The target of test [1] is streptavidin (NEB, Cat #A00160) (UniProt P22629). The test is described as follows: ELISA, streptavidin well without peptide, secondary antibody only.
In test [2] the target is recombinant BoHV-1 gE CT-His polypeptide (Bovine herpesvirus type 1) (UniProt Q08101). The test is described as follows: ELISA on coated gE CT-His, secondary antibody only (negative control). Background: In an ELISA, binding on a coated surface is turned into a signal by an enzyme label.
Test [3] shares this target. The test is described as follows: competitive ELISA on gE CT-His; serum, then HRP-MAb 2H8F3 (competitor); negative control reference.

Chain of UniProt P22629 (P22629 37-163 limits assumed): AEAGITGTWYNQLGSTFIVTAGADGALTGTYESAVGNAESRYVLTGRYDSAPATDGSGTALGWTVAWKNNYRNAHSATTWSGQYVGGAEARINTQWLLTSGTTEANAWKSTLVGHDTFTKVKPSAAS

As for “goat anti-mouse IgG [HRP] secondary antibody”, the O.D. 450 nm was found to be 0.055 O.D. 450 nm in test [1] and 0.057 O.D. 450 nm in test [2].

Regarding “inactivated, non-infected fetal calf serum (Atlas biologicals), negative control”, in test [3], the % Inhibition was determined as 0% and the S/N Ratio came to 1.

Usually % Inhibition stands for the relative decrease from the control value, in per cent.

Source of the values: patent US20210011017A1.
